Data published in PMC12041213 (Nature Communications, 2025).

Legend:
Test in all cases: co-IP
[1] = target: T1, His-Ash1-2SA (Ash1-S149A S388A) (S. cerevisiae, UniProt P34233 1-588, S149A | S388A)
T1 sequence (looked up): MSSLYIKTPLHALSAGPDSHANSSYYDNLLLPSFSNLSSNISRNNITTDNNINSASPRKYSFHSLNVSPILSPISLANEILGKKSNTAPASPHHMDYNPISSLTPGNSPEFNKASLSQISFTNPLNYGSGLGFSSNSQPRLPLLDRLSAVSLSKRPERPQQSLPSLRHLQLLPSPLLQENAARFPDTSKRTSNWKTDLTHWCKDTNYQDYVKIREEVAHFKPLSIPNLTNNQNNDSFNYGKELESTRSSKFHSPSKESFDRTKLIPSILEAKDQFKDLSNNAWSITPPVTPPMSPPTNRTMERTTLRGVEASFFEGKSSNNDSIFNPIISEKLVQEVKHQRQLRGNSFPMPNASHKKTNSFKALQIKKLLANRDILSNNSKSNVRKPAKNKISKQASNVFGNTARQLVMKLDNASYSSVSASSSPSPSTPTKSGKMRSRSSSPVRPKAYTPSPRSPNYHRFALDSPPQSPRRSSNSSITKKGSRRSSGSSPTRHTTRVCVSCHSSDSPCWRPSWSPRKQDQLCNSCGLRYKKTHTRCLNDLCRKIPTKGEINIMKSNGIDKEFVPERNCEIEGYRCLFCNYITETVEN

[2] = target: T2, His-Ash1 phosphorylated by Tpk2-CBP (S. cerevisiae, UniProt P34233 1-588, phosphorylated by Tpk2-CBP at S149 and S388)
T2 sequence (looked up): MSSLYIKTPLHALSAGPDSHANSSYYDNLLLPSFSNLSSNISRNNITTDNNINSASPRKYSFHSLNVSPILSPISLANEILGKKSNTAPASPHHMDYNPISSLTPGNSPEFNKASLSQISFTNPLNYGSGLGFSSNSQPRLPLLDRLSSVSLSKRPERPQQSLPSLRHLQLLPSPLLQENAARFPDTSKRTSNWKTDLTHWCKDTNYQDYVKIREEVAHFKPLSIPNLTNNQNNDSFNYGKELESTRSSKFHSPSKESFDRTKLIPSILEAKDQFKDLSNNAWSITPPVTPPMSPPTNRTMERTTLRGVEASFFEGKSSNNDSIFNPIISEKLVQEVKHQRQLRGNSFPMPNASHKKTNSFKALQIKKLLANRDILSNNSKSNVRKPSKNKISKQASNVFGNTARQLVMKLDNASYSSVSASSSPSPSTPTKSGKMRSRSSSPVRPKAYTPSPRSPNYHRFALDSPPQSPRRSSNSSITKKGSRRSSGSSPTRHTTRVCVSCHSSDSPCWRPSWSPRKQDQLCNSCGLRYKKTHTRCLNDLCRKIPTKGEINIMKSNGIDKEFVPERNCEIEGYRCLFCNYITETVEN

[3] = target: T3, His-Ash1 (purified recombinant) (S. cerevisiae, UniProt P34233 1-588)
T3 sequence (looked up): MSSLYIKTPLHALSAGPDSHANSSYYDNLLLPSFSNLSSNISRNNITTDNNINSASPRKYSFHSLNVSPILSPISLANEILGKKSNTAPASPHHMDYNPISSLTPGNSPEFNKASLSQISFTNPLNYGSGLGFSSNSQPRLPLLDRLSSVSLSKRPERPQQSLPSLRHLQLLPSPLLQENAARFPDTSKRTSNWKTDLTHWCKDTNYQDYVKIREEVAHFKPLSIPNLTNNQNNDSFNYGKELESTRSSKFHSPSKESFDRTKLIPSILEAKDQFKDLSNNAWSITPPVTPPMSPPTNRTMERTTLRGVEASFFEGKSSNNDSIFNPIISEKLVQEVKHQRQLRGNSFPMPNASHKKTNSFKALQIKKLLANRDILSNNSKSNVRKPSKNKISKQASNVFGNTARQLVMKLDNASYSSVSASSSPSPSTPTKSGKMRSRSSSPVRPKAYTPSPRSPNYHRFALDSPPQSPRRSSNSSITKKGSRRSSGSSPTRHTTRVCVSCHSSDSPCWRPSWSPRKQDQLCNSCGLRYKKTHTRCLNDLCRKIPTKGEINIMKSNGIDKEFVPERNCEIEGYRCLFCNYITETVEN

binding result [1]: binds
binding result [2]: binds
binding result [3]: binds
B1: Ubp8-FLAG (purified recombinant) (enzyme, S. cerevisiae, UniProt P50102 1-471, looked up)
chain: MSICPHIQQVFQNEKSKDGVLKTCNAARYILNHSVPKEKFLNTMKCGTCHEINSGATFMCLQCGFCGCWNHSHFLSHSKQIGHIFGINSNNGLLFCFKCEDYIGNIDLINDAILAKYWDDVCTKTMVPSMERRDGLSGLINMGSTCFMSSILQCLIHNPYFIRHSMSQIHSNNCKVRSPDKCFSCALDKIVHELYGALNTKQASSSSTSTNRQTGFIYLLTCAWKINQNLAGYSQQDAHEFWQFIINQIHQSYVLDLPNAKEVSRANNKQCECIVHTVFEGSLESSIVCPGCQNNSKTTIDPFLDLSLDIKDKKKLYECLDSFHKKEQLKDFNYHCGECNSTQDAIKQLGIHKLPSVLVLQLKRFEHLLNGSNRKLDDFIEFPTYLNMKNYCSTKEKDKHSENGKVPDIIYELIGIVSHKGTVNEGHYIAFCKISGGQWFKFNDSMVSSISQEEVLKEQAYLLFYTIRQVN
